In this test the target is T1, Recombinant 15N-labelled CypA (UniProt P62937 1-165, 15N-labelled).
T1 construct: Cyclophilin A (CypA), peptidyl-prolyl cis-trans isomerase; also called 15N-CypA; source: recombinant, produced and purified as described previously [18]
The experiment in a line: NMR titration; 15N-labelled CypA (100 µM) mixed with increasing concentrations of unlabelled peptide (0 to 2.5 mM); 1H,15N HSQC at each step; KD fitted from combined chemical shift perturbations. The settings on record: both partners purified.

B1: Pep-WT (residues 308-327 of NS5A from HCV GT1b Con1) (peptide)
peptide: KFPRAMPIWARPDYNPPLLE
notes: NS5A domain II of hepatitis C virus genotype 1b (Con1), residues 308-327; numbers count on: NS5A itself; also called WT peptide; Pep-WT peptide; source: synthetic peptide, bought: Neosystems (Strasbourg, France), purity greater than 95%
Usually Kd stands for the free concentration of one partner at which half of the binding sites on the other are occupied at equilibrium, for simple one-to-one binding. Consider B1, for which the Kd was 802 µM.

B2: Pep-D320E (residues 308-327 of NS5A from HCV GT1b Con1 with D320E) (peptide)
peptide: KFPRAMPIWARPEYNPPLLE
notes: numbers count on: NS5A itself; also called D320E peptide; Pep-D320E peptide; source: synthetic peptide, bought: Neosystems (Strasbourg, France), purity greater than 95%
Turning to B2, the Kd turned out to be 1230 µM.

(Values after article PMC2965138, “DEB025 (Alisporivir) Inhibits Hepatitis C Virus Replication by Preventing a Cyclophilin A Induced Cis-Trans Isomerisation in Domain II of NS5A” (PLoS ONE, 2010).)
